Assay results from US20100129807A1 (published 2010).
Where no end group is shown, it is not given here.

Biological target: T1, bacterial repressor protein LexA (UniProt P0A7C2 1-202)
T1 construct: One entry is used for LexA in all assays; also called LexA target (pEG202); LexA bait
T1 sequence: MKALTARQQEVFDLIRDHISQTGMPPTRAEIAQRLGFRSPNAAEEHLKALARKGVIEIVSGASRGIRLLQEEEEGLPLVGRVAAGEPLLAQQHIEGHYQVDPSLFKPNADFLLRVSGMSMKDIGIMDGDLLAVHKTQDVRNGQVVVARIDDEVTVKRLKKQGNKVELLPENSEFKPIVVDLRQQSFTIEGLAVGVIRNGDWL
Assay: SPR (BiacoreX), L2 peptide immobilised on a CM5 chip, LexA injected

B1: synthetic linear L2 peptide with a TAT importer sequence at the N-terminal (NH2-GRKKRRQRRRPPQ-SRSWDLPGEY) (peptide)
peptide: H-GRKKRRQRRRPPQSRSWDLPGEY
notes: Immobilised on a CM5 sensor chip for SPR
**Q.** B1 was tested. Which Kd did it give?
**A.** 1700 nM
